# Assay results taken from patent publication US20110064819A1, “ENCAPSULATION OF BIOLOGICALLY ACTIVE AGENTS” (priority 2008, published 2011).
# Test: HIP extraction of dalargin into the organic phase (LC-MS and Edman sequencing)
# Format: physicochemical
# Settings: docusate sodium in dichloromethane, peptide solution pH 3.05
# Procedure: A solution of the hexapeptide dalargin was prepared by dissolving 30-60 mg of the peptide into 3 ml of CaCl2 (18.3 mM) and lowering the pH to 3.05 by addition of concentrated HCl (2M). The resulting solution (500 μl, 10-20 mg/ml, and total amount of peptide 5-10 mg) was added to a solution of the HIP agent docusate sodium in dichloromethane (1 ml, 3.058-6.116% w/v) in a 2 ml eppendorf tube. The volume of HIP solution used was twice that of the peptide solution (1 ml HIP solution for 500 μl peptide solution). The molar ratio of HIP:peptide was 10:1 with 5 mg peptide and 5:1 with 10 mg peptide. The organic and aqueous phases were mixed by vortexing at maximum speed for 1 minute. The resulting suspension was then centrifuged to separate the two phases at 20,817 rcf for 50 minutes. The organic layer (containing solubilised peptide) was collected and used to prepare nanoparticles. In order to confirm that the process had been successful at solubilising the peptide into the organic phase, the amount of peptide remaining in the aqueous phase was determined.
substance,measurement,value
dalargin (YAGFLR; Humanised sequence of mus musculus and homo sapiens) [hexapeptide YAGFLR],Peptide extracted into the organic phase,at least 99%
